Tests used:
[1] = target: T1, She2p (Saccharomyces cerevisiae, UniProt P36068 1-246); test: filter binding; range over three control RNAs; EMSA: 20 mM HEPES pH 7.8, 200 mM NaCl, 2 mM MgCl2, 2 mM DTT, 4% glycerol, 30 or 100 ug/ml yeast tRNA, 5 nM RNA, 20 C; filter binding: 20 mM HEPES pH 7.4-7.5 (7.9 with She3p), 150 mM NaCl, 2 mM MgCl2, 2 mM DTT, 30 ug/ml yeast tRNA, 0.5 nM RNA; pull-down: HNMD buffer, 4 C; conditions: protein: recombinant; tags: GST tag (PreScission-cleaved); chain copies: 4; label: 32P; hairpin
[2] = target: T2, She3p (Saccharomyces cerevisiae, UniProt P38272 1-425); test: EMSA; EMSA: 20 mM HEPES pH 7.8, 200 mM NaCl, 2 mM MgCl2, 2 mM DTT, 4% glycerol, 30 or 100 ug/ml yeast tRNA, 5 nM RNA, 20 C; filter binding: 20 mM HEPES pH 7.4-7.5 (7.9 with She3p), 150 mM NaCl, 2 mM MgCl2, 2 mM DTT, 30 ug/ml yeast tRNA, 0.5 nM RNA; pull-down: HNMD buffer, 4 C; conditions: protein: recombinant; tags: C-terminal His6; label: 32P; stem-loop
T2 sequence: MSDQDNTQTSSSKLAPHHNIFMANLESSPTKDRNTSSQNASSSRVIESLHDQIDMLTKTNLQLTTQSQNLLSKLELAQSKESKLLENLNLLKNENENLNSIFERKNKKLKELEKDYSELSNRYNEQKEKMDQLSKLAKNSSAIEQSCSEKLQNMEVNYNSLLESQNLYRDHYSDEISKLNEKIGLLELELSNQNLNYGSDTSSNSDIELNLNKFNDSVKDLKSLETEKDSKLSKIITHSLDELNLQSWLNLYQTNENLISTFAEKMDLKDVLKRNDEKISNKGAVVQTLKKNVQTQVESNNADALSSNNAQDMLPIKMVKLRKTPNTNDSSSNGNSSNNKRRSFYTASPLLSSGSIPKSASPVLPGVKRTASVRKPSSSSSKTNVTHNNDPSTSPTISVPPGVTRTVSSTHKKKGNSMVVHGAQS

[3] = target: Puf6p (Saccharomyces cerevisiae, UniProt Q04373 2-656); test: as above; conditions: protein: recombinant, tags: GST tag (cleaved for EMSA; retained in GST pull-downs), label: 32P
[4] = target: T3, She2p;She3p (Saccharomyces cerevisiae;Saccharomyces …, UniProt P36068;P38272 1-246;1-425, |); test: EMSA; She3p constant 25 nM, She2p varied; EMSA: 20 mM HEPES pH 7.8, 200 mM NaCl, 2 mM MgCl2, 2 mM DTT, 4% glycerol, 30 or 100 ug/ml yeast tRNA, 5 nM RNA, 20 C; filter binding: 20 mM HEPES pH 7.4-7.5 (7.9 with She3p), 150 mM NaCl, 2 mM MgCl2, 2 mM DTT, 30 ug/ml yeast tRNA, 0.5 nM RNA; pull-down: HNMD buffer, 4 C; conditions: protein: recombinant;recombinant; tags: GST tag (PreScission-cleaved);C-terminal His6; chain copies: 4;2; label: 32P; stem-loop
Target sequence in this assay (P36068 whole entry, one chain of several): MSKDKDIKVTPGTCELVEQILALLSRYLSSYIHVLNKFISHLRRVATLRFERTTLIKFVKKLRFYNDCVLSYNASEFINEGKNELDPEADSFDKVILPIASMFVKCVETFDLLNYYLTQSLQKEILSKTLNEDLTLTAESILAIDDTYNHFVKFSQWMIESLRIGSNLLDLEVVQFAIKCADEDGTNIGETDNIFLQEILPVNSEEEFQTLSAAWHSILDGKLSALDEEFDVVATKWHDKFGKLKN

[5] = target: T2, She3p; test: EMSA; subtle shift at 25 nM She3p; EMSA: 20 mM HEPES pH 7.8, 200 mM NaCl, 2 mM MgCl2, 2 mM DTT, 4% glycerol, 30 or 100 ug/ml yeast tRNA, 5 nM RNA, 20 C; filter binding: 20 mM HEPES pH 7.4-7.5 (7.9 with She3p), 150 mM NaCl, 2 mM MgCl2, 2 mM DTT, 30 ug/ml yeast tRNA, 0.5 nM RNA; pull-down: HNMD buffer, 4 C; conditions: protein: recombinant; tags: C-terminal His6; label: 32P; stem-loop
[6] = target: T2, She3p; test: UV cross-linking; EMSA: 20 mM HEPES pH 7.8, 200 mM NaCl, 2 mM MgCl2, 2 mM DTT, 4% glycerol, 30 or 100 ug/ml yeast tRNA, 5 nM RNA, 20 C; filter binding: 20 mM HEPES pH 7.4-7.5 (7.9 with She3p), 150 mM NaCl, 2 mM MgCl2, 2 mM DTT, 30 ug/ml yeast tRNA, 0.5 nM RNA; pull-down: HNMD buffer, 4 C; conditions: protein: recombinant; tags: C-terminal His6; label: 32P; stem-loop
[7] = target: T1, She2p; test: as above; conditions: protein: recombinant; tags: GST tag (PreScission-cleaved); chain copies: 4; label: 32P; stem-loop
[8] = target: T3, She2p;She3p; test: EMSA; She3p constant 25 nM; Kd stated as in similar range; EMSA: 20 mM HEPES pH 7.8, 200 mM NaCl, 2 mM MgCl2, 2 mM DTT, 4% glycerol, 30 or 100 ug/ml yeast tRNA, 5 nM RNA, 20 C; filter binding: 20 mM HEPES pH 7.4-7.5 (7.9 with She3p), 150 mM NaCl, 2 mM MgCl2, 2 mM DTT, 30 ug/ml yeast tRNA, 0.5 nM RNA; pull-down: HNMD buffer, 4 C; conditions: protein: recombinant;recombinant; tags: GST tag (PreScission-cleaved);C-terminal His6; chain copies: 4;2; label: 32P; stem-loop
Target sequence in this assay (P36068 whole entry, chain 1 of 2, one chain of several): as the sequence (P36068 whole entry, one chain of several) above

[9] = target: She2p (ΔC);She3p (Saccharomyces cerevisiae;Saccharomyces …, UniProt P36068;P38272 1-240;1-425, |); test: size-exclusion chromatography; EMSA: 20 mM HEPES pH 7.8, 200 mM NaCl, 2 mM MgCl2, 2 mM DTT, 4% glycerol, 30 or 100 ug/ml yeast tRNA, 5 nM RNA, 20 C; filter binding: 20 mM HEPES pH 7.4-7.5 (7.9 with She3p), 150 mM NaCl, 2 mM MgCl2, 2 mM DTT, 30 ug/ml yeast tRNA, 0.5 nM RNA; pull-down: HNMD buffer, 4 C; conditions: protein: recombinant;recombinant; tags: GST tag (PreScission-cleaved);C-terminal His6; stem-loop
[10] = target: Puf6p;She2p (Saccharomyces cerevisiae;Saccharomyces …, UniProt Q04373;P36068 2-656;1-246, |); test: pull-down; GST-Puf6p immobilized; EMSA: 20 mM HEPES pH 7.8, 200 mM NaCl, 2 mM MgCl2, 2 mM DTT, 4% glycerol, 30 or 100 ug/ml yeast tRNA, 5 nM RNA, 20 C; filter binding: 20 mM HEPES pH 7.4-7.5 (7.9 with She3p), 150 mM NaCl, 2 mM MgCl2, 2 mM DTT, 30 ug/ml yeast tRNA, 0.5 nM RNA; pull-down: HNMD buffer, 4 C; conditions: protein: recombinant;recombinant; tags: GST tag (cleaved for EMSA; retained in GST pull-downs);GST tag (PreScission-cleaved); copies: 1;4; stem-loop
[11] = target: T3, She2p;She3p; test: size-exclusion chromatography; pull-down; EMSA: 20 mM HEPES pH 7.8, 200 mM NaCl, 2 mM MgCl2, 2 mM DTT, 4% glycerol, 30 or 100 ug/ml yeast tRNA, 5 nM RNA, 20 C; filter binding: 20 mM HEPES pH 7.4-7.5 (7.9 with She3p), 150 mM NaCl, 2 mM MgCl2, 2 mM DTT, 30 ug/ml yeast tRNA, 0.5 nM RNA; pull-down: HNMD buffer, 4 C; conditions: protein: recombinant;recombinant; tags: GST tag (PreScission-cleaved);C-terminal His6; chain copies: 4;2; stem-loop
Target sequence in this assay (P36068 whole entry, one chain of several): as above

[12] = target: Puf6p;She2p;She3p (Saccharomyces cerevisiae;Saccharomyces …, UniProt Q04373;P36068;P38272 2-656;1-246;1-425, ||); test: pull-down; His-She3p or GST-Puf6p immobilized; EMSA: 20 mM HEPES pH 7.8, 200 mM NaCl, 2 mM MgCl2, 2 mM DTT, 4% glycerol, 30 or 100 ug/ml yeast tRNA, 5 nM RNA, 20 C; filter binding: 20 mM HEPES pH 7.4-7.5 (7.9 with She3p), 150 mM NaCl, 2 mM MgCl2, 2 mM DTT, 30 ug/ml yeast tRNA, 0.5 nM RNA; pull-down: HNMD buffer, 4 C; conditions: protein: recombinant;recombinant;recombinant; tags: GST tag (cleaved for EMSA; retained in GST pull-downs);GST tag (PreScission-cleaved);C-terminal His6; stem-loop
[13] = target: She2p (ΔhE) (Saccharomyces cerevisiae, UniProt P36068 1-246, del174-183); test: size-exclusion chromatography; binary co-complex; EMSA: 20 mM HEPES pH 7.8, 200 mM NaCl, 2 mM MgCl2, 2 mM DTT, 4% glycerol, 30 or 100 ug/ml yeast tRNA, 5 nM RNA, 20 C; filter binding: 20 mM HEPES pH 7.4-7.5 (7.9 with She3p), 150 mM NaCl, 2 mM MgCl2, 2 mM DTT, 30 ug/ml yeast tRNA, 0.5 nM RNA; pull-down: HNMD buffer, 4 C; conditions: protein: recombinant; tags: GST tag (PreScission-cleaved); chain copies: 2; stem-loop
She2p (ΔhE), sequence (P36068 other isoform, or with tags, fused parts or gaps del174-183 | mutant): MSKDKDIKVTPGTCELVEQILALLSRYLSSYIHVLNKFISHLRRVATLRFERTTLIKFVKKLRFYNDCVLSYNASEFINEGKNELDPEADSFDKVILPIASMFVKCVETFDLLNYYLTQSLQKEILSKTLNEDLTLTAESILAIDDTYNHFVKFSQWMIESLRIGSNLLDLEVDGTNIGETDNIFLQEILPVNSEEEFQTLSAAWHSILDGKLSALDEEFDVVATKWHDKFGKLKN

T1 sequence (P36068 whole entry): as the sequence (P36068 whole entry, one chain of several) above
Puf6p, sequence (Q04373 2-656): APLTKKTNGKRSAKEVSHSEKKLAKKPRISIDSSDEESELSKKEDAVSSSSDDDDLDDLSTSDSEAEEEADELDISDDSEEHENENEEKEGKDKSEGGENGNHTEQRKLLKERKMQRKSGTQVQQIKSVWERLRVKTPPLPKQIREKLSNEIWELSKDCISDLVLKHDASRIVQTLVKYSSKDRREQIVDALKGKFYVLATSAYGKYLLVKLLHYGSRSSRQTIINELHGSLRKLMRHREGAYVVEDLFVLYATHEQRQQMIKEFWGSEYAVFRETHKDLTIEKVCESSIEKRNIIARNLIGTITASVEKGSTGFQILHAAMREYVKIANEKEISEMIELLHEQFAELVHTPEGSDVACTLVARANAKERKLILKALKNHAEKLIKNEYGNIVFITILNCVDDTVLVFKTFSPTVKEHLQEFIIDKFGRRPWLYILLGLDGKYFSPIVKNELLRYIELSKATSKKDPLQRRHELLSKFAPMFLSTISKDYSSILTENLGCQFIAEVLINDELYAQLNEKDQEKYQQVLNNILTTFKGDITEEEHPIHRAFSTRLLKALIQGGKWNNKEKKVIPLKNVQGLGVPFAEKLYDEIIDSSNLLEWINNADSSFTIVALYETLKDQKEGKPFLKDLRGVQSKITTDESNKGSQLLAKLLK
She2p (ΔC);She3p, sequence (P36068 1-240, stated change not applied, one chain of several): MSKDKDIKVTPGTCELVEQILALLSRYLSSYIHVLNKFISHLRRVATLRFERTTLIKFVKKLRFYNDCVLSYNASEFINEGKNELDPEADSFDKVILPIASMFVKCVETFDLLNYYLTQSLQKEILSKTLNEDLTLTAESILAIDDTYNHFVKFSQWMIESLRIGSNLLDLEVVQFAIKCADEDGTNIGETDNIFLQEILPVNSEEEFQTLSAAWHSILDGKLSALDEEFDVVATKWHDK
Puf6p;She2p;She3p, sequence (Q04373 2-656, chain 1 of 2): as the sequence (Q04373 2-656) above
Puf6p;She2p;She3p, sequence (P36068 whole entry, chain 2 of 2): as the sequence (P36068 whole entry, one chain of several) above
Puf6p;She2p, sequence (Q04373 2-656, chain 1 of 2): as the sequence (Q04373 2-656) above
Puf6p;She2p, sequence (P36068 whole entry, chain 2 of 2): as the sequence (P36068 whole entry, one chain of several) above

## CGAGCCUGGGAGCUCG (structured_RNA) [HIV-1 TAR (16 bases)]
[1]
  Kd: ~1330 nM

B1: HIV-1 TAR (57 bases) (structured_RNA)
RNA: GGUCUCUCUGGUUAGACCAGAUCUGAGCCUGGGAGCUCUCUGGCUAACUAGGGAACC
[1]
  Kd: ~1330 nM

## CGAAGAUGAAAAUGAUCACGAGAGAGAUCCCGAACAAUUUUCAGAAUUUG (structured_RNA) [EAR1 zip code]
[2]
  binding result: binds
[3]; stem-loop
  binding result: binds
[4]
  Kd: ~25 nM

B2: ASH1 E1 (structured_RNA)
RNA: AAGACUAUGUUAAAAUACGCGAAGAAGUGGCUCAUUUCAAGCCAUUAAGUAUACCCAACUUAACUAAUAAUCAAAAUAA
[5]
  binding result: binds
[4]
  Kd: ~25 nM

B3: ASH1 E2A (structured_RNA)
RNA: UUGCGAAUAGAGACAUUCUAUCGAACAAUUCCAAAUCUAAUGUAAGGAAACCAUCUAAGAACAAAAUCUCAAAGCAA
[5]
  binding result: binds
[4]
  Kd: ~25 nM

## UUAUCCAUUGCACUCCGGAUGU (structured_RNA) [U1 snRNA hairpin II]
[1]
  Kd: ~1330 nM

B4: ASH1 E3-51 (structured_RNA)
RNA: AUGGAUAACUGAAUCUCUUUCAACUAAUAAGAGACAUUAUCACGAAACAAU
[6]
  binding result: binds
[7]
  binding result: binds
[8]
  Kd: ~25 nM

B5: Poly(A)60 (ssRNA)
RNA: AAAAAAAAAAAAAAAAAAAAAAAAAAAAAAAAAAAAAAAAAAAAAAAAAAAAAAAAAAAA
[3]
  binding result: binds

B6: E3-118-tRNA (structured_RNA)
RNA: GGCUACGUAGCUCAGUUGGUUAGAGCAGCGGCCGGAGACAGUAGAGAAUUGAUACAUGGAUAACUGAAUCUCUUUCAACUAAUAAGAGACAUUAUCACGAAACAAUUGUACAUUUCUCUCCUUGUCUGUGCUAAAUAAACUACAAAUAAAAACCGCGGGUCACAGGUUCGAAUCCCGUCGUAGCCACCA
[9]
  binding result: binds
[10]
  binding result: binds
[11]
  binding result: binds
[12]
  binding result: binds
[13]
  binding result: binds

B7: ASH1 E2B (domain 1) (structured_RNA)
RNA: AUCUUCAUCUCCAUCUCCCUCCACACCGACGAAAAGUGGCAAGAUGAGAUCAAGAUCA
[4]
  Kd: ~25 nM
